Test results taken from paper PMC10786891, “Massively parallel profiling of RNA-targeting CRISPR-Cas13d”.

T1: EsCas13d, nuclease-dead (Eubacterium siraeum, UniProt B0MS50, R295A;H300A;R849A;H854A)
T1 sequence: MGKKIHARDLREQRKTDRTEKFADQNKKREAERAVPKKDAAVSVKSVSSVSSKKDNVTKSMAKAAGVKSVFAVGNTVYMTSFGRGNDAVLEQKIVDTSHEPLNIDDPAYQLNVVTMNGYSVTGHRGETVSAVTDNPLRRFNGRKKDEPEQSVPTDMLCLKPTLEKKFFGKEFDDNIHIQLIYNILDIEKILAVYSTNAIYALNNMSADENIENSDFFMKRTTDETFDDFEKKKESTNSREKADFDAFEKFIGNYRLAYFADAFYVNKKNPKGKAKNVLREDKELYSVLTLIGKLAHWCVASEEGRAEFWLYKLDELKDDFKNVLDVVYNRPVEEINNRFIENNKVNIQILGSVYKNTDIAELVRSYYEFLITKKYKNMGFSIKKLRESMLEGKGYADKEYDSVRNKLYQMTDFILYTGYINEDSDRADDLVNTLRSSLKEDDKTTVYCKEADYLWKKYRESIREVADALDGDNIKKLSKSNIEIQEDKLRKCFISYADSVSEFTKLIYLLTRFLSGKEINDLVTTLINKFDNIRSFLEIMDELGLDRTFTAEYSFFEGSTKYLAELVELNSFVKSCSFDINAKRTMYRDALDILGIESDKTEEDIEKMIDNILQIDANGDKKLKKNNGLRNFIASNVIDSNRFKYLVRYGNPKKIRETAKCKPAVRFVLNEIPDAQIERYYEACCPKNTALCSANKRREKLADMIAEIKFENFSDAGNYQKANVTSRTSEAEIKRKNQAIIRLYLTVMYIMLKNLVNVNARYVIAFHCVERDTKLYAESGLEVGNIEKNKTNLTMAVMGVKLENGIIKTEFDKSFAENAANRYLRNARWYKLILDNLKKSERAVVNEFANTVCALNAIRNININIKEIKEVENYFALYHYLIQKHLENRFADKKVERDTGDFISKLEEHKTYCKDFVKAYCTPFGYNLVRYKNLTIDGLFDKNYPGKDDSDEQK


biological target: T1, EsCas13d, nuclease-dead; test: crRNA (strand 1, pre-loaded); Mg2+; 40 mM Tris-HCl pH 7.5, 150 mM NaCl, 6 mM MgCl2, 1 mM DTT, 0.1% Tween-20, 0.2 mg/ml BSA; 25 C; 10 min per concentration, then washed; settings: tags: His6-TwinStrep-SUMO cleaved; N-terminal SNAP kept (SNAP-Surface 488); label: 3' end held by stalled T7 RNA polymerase

| Binder | Kd |
| --- | --- |
| target 1 MT 5'PFS UUG 3'PFS CAA (mixed) RNA 1: CACCCGUGCAAAAAUGCAGGGGUCUAAAACUGAGCGGAUAACCUCUCUAUGG RNA 2: GGGAAUGGAUCCACAUCUACGAAUUCUUGCCAUAGAGAGGUUAUCCGCUCACAAAGAUCGGAAGAGCACACGU | ~55 nM |
| target 1 MT 5'PFS CUU 3'PFS CAC (mixed) RNA 1: CACCCGUGCAAAAAUGCAGGGGUCUAAAACUGAGCGGAUAACCUCUCUAUGG RNA 2: GGGAAUGGAUCCACAUCUACGAAUUCCUUCCAUAGAGAGGUUAUCCGCUCACACAGAUCGGAAGAGCACACGU | 47 ± 19 nM |
| target 1 MT 5'PFS GCA 3'PFS AAG (mixed) RNA 1: CACCCGUGCAAAAAUGCAGGGGUCUAAAACUGAGCGGAUAACCUCUCUAUGG RNA 2: GGGAAUGGAUCCACAUCUACGAAUUCGCACCAUAGAGAGGUUAUCCGCUCAAAGAGAUCGGAAGAGCACACGU | 32.5 ± 8 nM |
| target 1 MT 5'PFS AGA 3'PFS UGC (mixed) RNA 1: CACCCGUGCAAAAAUGCAGGGGUCUAAAACUGAGCGGAUAACCUCUCUAUGG RNA 2: GGGAAUGGAUCCACAUCUACGAAUUCAGACCAUAGAGAGGUUAUCCGCUCAUGCAGAUCGGAAGAGCACACGU | ~53.5 nM |
| target 1 MT 5'PFS GUG 3'PFS GGC (mixed) RNA 1: CACCCGUGCAAAAAUGCAGGGGUCUAAAACUGAGCGGAUAACCUCUCUAUGG RNA 2: GGGAAUGGAUCCACAUCUACGAAUUCGUGCCAUAGAGAGGUUAUCCGCUCAGGCAGAUCGGAAGAGCACACGU | 14 ± 2.25 nM |
| target 1 MT 5'PFS GUG 3'PFS GGG (mixed) RNA 1: CACCCGUGCAAAAAUGCAGGGGUCUAAAACUGAGCGGAUAACCUCUCUAUGG RNA 2: GGGAAUGGAUCCACAUCUACGAAUUCGUGCCAUAGAGAGGUUAUCCGCUCAGGGAGAUCGGAAGAGCACACGU | 32.9 ± 2.9 nM |
| target 1 C6A,C22U (mixed) RNA 1: CACCCGUGCAAAAAUGCAGGGGUCUAAAACUGAGCGGAUAACCUCUCUAUGG RNA 2: GGGAAUGGAUCCACAUCUACGAAUUCGUAUCAUAGAGAGGUUAUCAGCUCACCGAGAUCGGAAGAGCACACGU | 11.6 ± 0.7 nM |
| target 1 MT 5'PFS AGA 3'PFS UGA (mixed) RNA 1: CACCCGUGCAAAAAUGCAGGGGUCUAAAACUGAGCGGAUAACCUCUCUAUGG RNA 2: GGGAAUGGAUCCACAUCUACGAAUUCAGACCAUAGAGAGGUUAUCCGCUCAUGAAGAUCGGAAGAGCACACGU | 90 ± 40 nM |
| target 1 MT 5'PFS GUC 3'PFS CUU (mixed) RNA 1: CACCCGUGCAAAAAUGCAGGGGUCUAAAACUGAGCGGAUAACCUCUCUAUGG RNA 2: GGGAAUGGAUCCACAUCUACGAAUUCGUCCCAUAGAGAGGUUAUCCGCUCACUUAGAUCGGAAGAGCACACGU | 13.8 ± 2.6 nM |
| target 1 MT 5'PFS CCG 3'PFS AUA (mixed) RNA 1: CACCCGUGCAAAAAUGCAGGGGUCUAAAACUGAGCGGAUAACCUCUCUAUGG RNA 2: GGGAAUGGAUCCACAUCUACGAAUUCCCGCCAUAGAGAGGUUAUCCGCUCAAUAAGAUCGGAAGAGCACACGU | 5.1 ± 1.45 nM |
| target 1 MT 5'PFS AGA 3'PFS UGU (mixed) RNA 1: CACCCGUGCAAAAAUGCAGGGGUCUAAAACUGAGCGGAUAACCUCUCUAUGG RNA 2: GGGAAUGGAUCCACAUCUACGAAUUCAGACCAUAGAGAGGUUAUCCGCUCAUGUAGAUCGGAAGAGCACACGU | 110 ± 50 nM |
| target 1 MT 5'PFS ACA 3'PFS AGA (mixed) RNA 1: CACCCGUGCAAAAAUGCAGGGGUCUAAAACUGAGCGGAUAACCUCUCUAUGG RNA 2: GGGAAUGGAUCCACAUCUACGAAUUCACACCAUAGAGAGGUUAUCCGCUCAAGAAGAUCGGAAGAGCACACGU | 66.5 ± 24 nM |
| target 1 MT 5'PFS CAG 3'PFS CCC (mixed) RNA 1: CACCCGUGCAAAAAUGCAGGGGUCUAAAACUGAGCGGAUAACCUCUCUAUGG RNA 2: GGGAAUGGAUCCACAUCUACGAAUUCCAGCCAUAGAGAGGUUAUCCGCUCACCCAGAUCGGAAGAGCACACGU | ~49 nM |
| target 1 C4U,U8G (mixed) RNA 1: CACCCGUGCAAAAAUGCAGGGGUCUAAAACUGAGCGGAUAACCUCUCUAUGG RNA 2: GGGAAUGGAUCCACAUCUACGAAUUCGUACCAUAGAGAGGUUAGCCGUUCACCGAGAUCGGAAGAGCACACGU | 14.1 ± 0.8 nM |
| target 1 MT 5'PFS GCC 3'PFS AUC (mixed) RNA 1: CACCCGUGCAAAAAUGCAGGGGUCUAAAACUGAGCGGAUAACCUCUCUAUGG RNA 2: GGGAAUGGAUCCACAUCUACGAAUUCGCCCCAUAGAGAGGUUAUCCGCUCAAUCAGAUCGGAAGAGCACACGU | 32 ± 11 nM |
| target 1 MT 5'PFS GUC 3'PFS CUG (mixed) RNA 1: CACCCGUGCAAAAAUGCAGGGGUCUAAAACUGAGCGGAUAACCUCUCUAUGG RNA 2: GGGAAUGGAUCCACAUCUACGAAUUCGUCCCAUAGAGAGGUUAUCCGCUCACUGAGAUCGGAAGAGCACACGU | 12.8 ± 2.9 nM |
| target 1 MT 5'PFS GUC 3'PFS CUA (mixed) RNA 1: CACCCGUGCAAAAAUGCAGGGGUCUAAAACUGAGCGGAUAACCUCUCUAUGG RNA 2: GGGAAUGGAUCCACAUCUACGAAUUCGUCCCAUAGAGAGGUUAUCCGCUCACUAAGAUCGGAAGAGCACACGU | 17.5 ± 4 nM |
| target 1 MT 5'PFS GUC 3'PFS CUC (mixed) RNA 1: CACCCGUGCAAAAAUGCAGGGGUCUAAAACUGAGCGGAUAACCUCUCUAUGG RNA 2: GGGAAUGGAUCCACAUCUACGAAUUCGUCCCAUAGAGAGGUUAUCCGCUCACUCAGAUCGGAAGAGCACACGU | 39.5 ± 12.5 nM |
| target 1 MT 5'PFS AAU 3'PFS UAU (mixed) RNA 1: CACCCGUGCAAAAAUGCAGGGGUCUAAAACUGAGCGGAUAACCUCUCUAUGG RNA 2: GGGAAUGGAUCCACAUCUACGAAUUCAAUCCAUAGAGAGGUUAUCCGCUCAUAUAGAUCGGAAGAGCACACGU | 72 ± 27 nM |
| target 1 MT 5'PFS GCC 3'PFS AUA (mixed) RNA 1: CACCCGUGCAAAAAUGCAGGGGUCUAAAACUGAGCGGAUAACCUCUCUAUGG RNA 2: GGGAAUGGAUCCACAUCUACGAAUUCGCCCCAUAGAGAGGUUAUCCGCUCAAUAAGAUCGGAAGAGCACACGU | 13.8 ± 2.4 nM |
| target 1 MT 5'PFS AAU 3'PFS UAG (mixed) RNA 1: CACCCGUGCAAAAAUGCAGGGGUCUAAAACUGAGCGGAUAACCUCUCUAUGG RNA 2: GGGAAUGGAUCCACAUCUACGAAUUCAAUCCAUAGAGAGGUUAUCCGCUCAUAGAGAUCGGAAGAGCACACGU | 41.5 ± 20 nM |
| target 1 insA 3' of 17,insA 3' of 6 (mixed) RNA 1: CACCCGUGCAAAAAUGCAGGGGUCUAAAACUGAGCGGAUAACCUCUCUAUGG RNA 2: GGGAAUGGAUCCACAUCUACGAAUUCGUACCAUAGAAGAGGUUAUCCAGCUCACCGAGAUCGGAAGAGCACACGU | 18.3 ± 1.4 nM |
| target 1 MT 5'PFS GCC 3'PFS AUG (mixed) RNA 1: CACCCGUGCAAAAAUGCAGGGGUCUAAAACUGAGCGGAUAACCUCUCUAUGG RNA 2: GGGAAUGGAUCCACAUCUACGAAUUCGCCCCAUAGAGAGGUUAUCCGCUCAAUGAGAUCGGAAGAGCACACGU | 16.5 ± 6 nM |
| target 1 MT 5'PFS AAG 3'PFS CAU (mixed) RNA 1: CACCCGUGCAAAAAUGCAGGGGUCUAAAACUGAGCGGAUAACCUCUCUAUGG RNA 2: GGGAAUGGAUCCACAUCUACGAAUUCAAGCCAUAGAGAGGUUAUCCGCUCACAUAGAUCGGAAGAGCACACGU | 23 ± 10.5 nM |
| target 1 MT 5'PFS GCA 3'PFS AAA (mixed) RNA 1: CACCCGUGCAAAAAUGCAGGGGUCUAAAACUGAGCGGAUAACCUCUCUAUGG RNA 2: GGGAAUGGAUCCACAUCUACGAAUUCGCACCAUAGAGAGGUUAUCCGCUCAAAAAGAUCGGAAGAGCACACGU | 31.5 ± 7.5 nM |
| target 1 MT 5'PFS GUG 3'PFS GGU (mixed) RNA 1: CACCCGUGCAAAAAUGCAGGGGUCUAAAACUGAGCGGAUAACCUCUCUAUGG RNA 2: GGGAAUGGAUCCACAUCUACGAAUUCGUGCCAUAGAGAGGUUAUCCGCUCAGGUAGAUCGGAAGAGCACACGU | 25.6 ± 2.7 nM |
| target 1 MT 5'PFS GCC 3'PFS AUU (mixed) RNA 1: CACCCGUGCAAAAAUGCAGGGGUCUAAAACUGAGCGGAUAACCUCUCUAUGG RNA 2: GGGAAUGGAUCCACAUCUACGAAUUCGCCCCAUAGAGAGGUUAUCCGCUCAAUUAGAUCGGAAGAGCACACGU | 16.9 ± 4.1 nM |
| target 1 MT 5'PFS GCA 3'PFS AAC (mixed) RNA 1: CACCCGUGCAAAAAUGCAGGGGUCUAAAACUGAGCGGAUAACCUCUCUAUGG RNA 2: GGGAAUGGAUCCACAUCUACGAAUUCGCACCAUAGAGAGGUUAUCCGCUCAAACAGAUCGGAAGAGCACACGU | 24 ± 6 nM |
